According to paper PMC2064313 (The Journal of Cell Biology, 2006):

T1: MBP-tagged FRLα C terminus (residues 612–1,094) (UniProt Q9JL26-1 612-1094)
T1 sequence: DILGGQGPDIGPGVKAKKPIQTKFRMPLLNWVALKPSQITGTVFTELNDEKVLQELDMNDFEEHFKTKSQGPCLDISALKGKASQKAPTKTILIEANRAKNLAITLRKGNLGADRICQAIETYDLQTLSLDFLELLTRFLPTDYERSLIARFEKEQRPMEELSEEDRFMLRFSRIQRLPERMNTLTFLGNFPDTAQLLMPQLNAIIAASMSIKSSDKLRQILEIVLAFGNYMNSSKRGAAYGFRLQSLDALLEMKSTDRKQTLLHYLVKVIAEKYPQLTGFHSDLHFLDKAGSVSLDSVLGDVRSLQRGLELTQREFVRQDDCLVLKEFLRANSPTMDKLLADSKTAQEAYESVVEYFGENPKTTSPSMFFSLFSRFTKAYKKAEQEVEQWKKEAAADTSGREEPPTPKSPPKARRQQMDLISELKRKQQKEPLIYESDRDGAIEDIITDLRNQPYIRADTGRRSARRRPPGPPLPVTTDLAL

T2: FRLα C terminus (residues 612–1,094), untagged (UniProt Q9JL26-1 612-1094)
T2 sequence: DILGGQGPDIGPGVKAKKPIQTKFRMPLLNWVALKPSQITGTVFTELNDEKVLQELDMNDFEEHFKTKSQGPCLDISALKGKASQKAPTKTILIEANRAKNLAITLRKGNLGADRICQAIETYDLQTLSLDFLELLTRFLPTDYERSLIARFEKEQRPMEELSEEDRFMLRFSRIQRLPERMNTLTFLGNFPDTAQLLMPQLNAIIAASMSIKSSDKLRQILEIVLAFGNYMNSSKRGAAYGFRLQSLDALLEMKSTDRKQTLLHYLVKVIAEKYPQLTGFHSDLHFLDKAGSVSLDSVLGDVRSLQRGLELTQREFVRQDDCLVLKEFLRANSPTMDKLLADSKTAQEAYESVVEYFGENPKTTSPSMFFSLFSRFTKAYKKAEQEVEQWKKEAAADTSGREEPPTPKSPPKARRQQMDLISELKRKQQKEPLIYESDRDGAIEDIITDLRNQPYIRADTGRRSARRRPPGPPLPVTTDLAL

B1: GST-tagged FRLα N terminus (residues 1–450) (domain or fragment)
chain: MGNAAGSAEQPAGPTASPPKQPAVPKQPMPAAGELEERFTRVLNCMNLPPDKVQLLSQYDNEKKWELICDQERFQVKNPPAAYIQKLKSYLDTGGVSRKVASDWMSNLGFKRRVQESTQVLRELETSLRTNHIGWVQEFLNEENRGLDVLLEYLAFAQCSVAYDMESTDSVASGAEKSKPLDQSVEDLSKAPPSSVPKSRLTIKLTPAHSRKALRNSRIVSQKDDVHVCIMCLRAIMNYQSGFSLVMNHPACVNEIALSLNNKSPRTKALVLELLAAVCLVRGGHDIILAAFDNFKEVCGEQHRFEKLMEYFRHEDSNIDFMVACMQFINIVVHSVENMNFRVFLQYEFTHLGLDLYLERLRLTESDKLQVQIQAYLDNVFDVGTLLEETETKNAVLEHMEELQEQVATLTERLRDTENDSMAKIAELEKQLSQARKELETLRERFSEST
B2: GST–N terminus T126D of FRLα (residues 1–450) (domain or fragment)
chain: MGNAAGSAEQPAGPTASPPKQPAVPKQPMPAAGELEERFTRVLNCMNLPPDKVQLLSQYDNEKKWELICDQERFQVKNPPAAYIQKLKSYLDTGGVSRKVASDWMSNLGFKRRVQESTQVLRELEDSLRTNHIGWVQEFLNEENRGLDVLLEYLAFAQCSVAYDMESTDSVASGAEKSKPLDQSVEDLSKAPPSSVPKSRLTIKLTPAHSRKALRNSRIVSQKDDVHVCIMCLRAIMNYQSGFSLVMNHPACVNEIALSLNNKSPRTKALVLELLAAVCLVRGGHDIILAAFDNFKEVCGEQHRFEKLMEYFRHEDSNIDFMVACMQFINIVVHSVENMNFRVFLQYEFTHLGLDLYLERLRLTESDKLQVQIQAYLDNVFDVGTLLEETETKNAVLEHMEELQEQVATLTERLRDTENDSMAKIAELEKQLSQARKELETLRERFSEST

Assays:
[1] = target: T1, MBP-tagged FRLα C terminus (residues …); experiment: pull-down
[2] = target: T2, FRLα C terminus (residues 612–1,094), …; experiment: pull-down

Row | Binder | binding result [1] | binding result [2]
1 | B1 | binds | binds
2 | B2 | – | binds
